Here are results for one molecule from CN115232213A (HEFEI TIANGANG IMMUNOLOGY PHARMACEUTICAL CO LTD, dated 2022).

This assay has as its target T1, TROP2蛋白 (TROP2 protein, SEQ ID NO:27) expressed on transduced cells (human, UniProt P09758 27-323).
T1 construct: also called CHO-K1-TROP2细胞; A375-TROP2细胞
T1 sequence: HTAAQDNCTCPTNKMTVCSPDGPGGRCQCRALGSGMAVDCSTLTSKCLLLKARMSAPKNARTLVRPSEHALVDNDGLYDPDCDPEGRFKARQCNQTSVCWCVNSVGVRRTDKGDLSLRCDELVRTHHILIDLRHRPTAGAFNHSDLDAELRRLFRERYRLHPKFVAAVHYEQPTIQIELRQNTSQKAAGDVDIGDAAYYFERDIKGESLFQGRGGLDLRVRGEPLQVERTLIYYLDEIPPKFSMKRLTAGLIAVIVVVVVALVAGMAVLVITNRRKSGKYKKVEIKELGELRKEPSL
Put plainly: flow cytometry on CHO-K1-TROP2 cells, Alexa-647 rat anti-human Fc detection. A general note: Flow cytometry measures light scatter and fluorescence of single cells or particles in a stream.

B1: CD3×TROP2双特异性抗体 (CD3×TROP2 bispecific antibody) (bispecific antibody, human IgG1, kappa, L234A L235A)
chain: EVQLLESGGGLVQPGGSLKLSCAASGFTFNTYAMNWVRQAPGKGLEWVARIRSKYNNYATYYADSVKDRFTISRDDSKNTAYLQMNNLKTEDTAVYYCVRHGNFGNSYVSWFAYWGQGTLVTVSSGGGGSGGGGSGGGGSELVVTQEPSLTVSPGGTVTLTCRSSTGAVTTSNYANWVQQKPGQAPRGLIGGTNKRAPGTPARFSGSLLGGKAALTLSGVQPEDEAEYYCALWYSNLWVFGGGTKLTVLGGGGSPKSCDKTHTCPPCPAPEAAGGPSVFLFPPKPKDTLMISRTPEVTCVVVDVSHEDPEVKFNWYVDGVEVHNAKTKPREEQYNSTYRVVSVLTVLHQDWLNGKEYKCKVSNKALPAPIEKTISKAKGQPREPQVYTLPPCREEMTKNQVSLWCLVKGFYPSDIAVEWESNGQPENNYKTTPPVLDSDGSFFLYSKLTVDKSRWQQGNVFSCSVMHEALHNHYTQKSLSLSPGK
heavy: QVQLQQSGSELKKPGASVKVSCKASGYTFTNYGMNWVKQAPGQGLKWMGWINTYTGEPTYTDDFKGRFAFSLDTSVSTAYLQISSLKADDTAVYFCARGGFGSSYWYFDVWGQGSLVTVSSASTKGPSVFPLAPSSKSTSGGTAALGCLVKDYFPEPVTVSWNSGALTSGVHTFPAVLQSSGLYSLSSVVTVPSSSLGTQTYICNVNHKPSNTKVDKKVEPKSCDKTHTCPPCPAPEAAGGPSVFLFPPKPKDTLMISRTPEVTCVVVDVSHEDPEVKFNWYVDGVEVHNAKTKPREEQYNSTYRVVSVLTVLHQDWLNGKEYKCKVSNKALPAPIEKTISKAKGQPREPQVCTLPPSREEMTKNQVSLSCAVKGFYPSDIAVEWESNGQPENNYKTTPPVLDSDGSFFLVSKLTVDKSRWQQGNVFSCSVMHEALHNHYTQKSLSLSPGK
light: DIQLTQSPSSLSASVGDRVSITCKASQDVSIAVAWYQQKPGKAPKLLIYSASYRYTGVPDRFSGSGSGTDFTLTISSLQPEDFAVYYCQQHYITPLTFGAGTKVEIKRTVAAPSVFIFPPSDEQLKSGTASVVCLLNNFYPREAKVQWKVDNALQSGNSQESVTEQDSKDSTYSLSSTLTLSKADYEKHKVYACEVTHQGLSSPVTKSFNRGEC
notes: Fc carries L234A/L235A; also called CD3×TROP2重组双特异抗体; CD3×TROP2抗体
For the molecule B1, the binding result was “binds”.
